Measurements: patent US20150353626A1, “APOLIPOPROTEIN A-I DERIVED PEPTIDES FOR TREATMENT OF HYPERGLYCAEMIA” (priority 2013, published 2015)

Test: Circular dichroism spectroscopy, alpha-helical content
Assay type: physicochemical
Conditions: 0.2 mg/ml in PBS pH 7.4, 25° C.
Procedure: CD measurements were performed on a Jasco J-810 spectropolarimeter equipped with a Jasco CDF-4265 Peltier set to 25° C. ApoA-I (full-length and the 190-234 polypeptide fragment) was diluted to 0.2 mg/ml in PBS (final concentration was 25 mmol/l phosphate, 25 mmol/l NaCl, pH 7.4), placed in a 0.1 mm quartz cuvette and, after extensive purging with nitrogen, scanned in the region 200 to 260 nm (scan speed was 20 nm/min). Averages of five scans were baseline-subtracted (PBS; 25 mmol/l phosphate, 25 mmol/l NaCl) and the alpha-helical content was calculated from the molar ellipticity at 222 nm as previously described (Petrlova et al. (2012) J Lipid Res 53: 390-398).

**Q.** With “190-243 polypeptide fragment: polypeptide fragment consisting of amino acids 190-243 of the full-length human apoA-I protein, C-terminal domain, 54-mer, recombinant (AEYHAKATEHLSTLSEKAKPALEDLRQGLLPVLESFKVSFLSALEEYTKKLNTQ; listed as Homo Sapiens)” as the substance, how does the “helical content from molar ellipticity at 222 nm” value read?
**A.** The value was 28%.
